Data published in patent US20050221381A1, “Method for isolating ligands” (priority 2002, published 2005).
Entries after “also recorded” stand apart in the source; their conditions may differ. Like-named read-outs stand apart in the source and are kept apart here.

Tests used:
[1] = tested on: PBMC from CMV seropositive donors; assay type: cell-based, human
[2] = tested on: PBMC (CD4 and CD8 positive T-cell compartments); experiment: Intracellular IFN-γ staining combined with surface staining for CD4, CD8, CD69 (FACS); assay type: cell-based, human; conditions: donor 10788, peptide 80 μg/ml (FIG. 11)
Description: To distinguish between CD8-positive CTL mediated or CD4-positive HTL mediated reactivity, intracellular cytokine staining combined with staining for surface markers was performed: after thawing, PBMNC were kept overnight (37° C., 5% CO2) in RPMI1640 with 10% human serum type AB (BioWhittaker). Next day aliquots of 2 million PBMNC were incubated with peptide (80 μg/ml) or Concanavalin A (SIGMA). After 1 h, 10 μg/ml brefeldin A (SIGMA) were added and incubation was continued for 5 hours. Surface staining for CD4 (phycoerythrin), CD8 (cychrome), CD69 (allophycocyanine) was done with antibodies labelled as indicated (Pharmingen, San Diego, Calif., USA). After fixation with 1% para-formaldehyde in PBS, cells were permeabilized by incubating for 15 min in 0.5% BSA/0.1% Na-azide/0.1% saponin in PBS. Intracellular cytokines were stained with anti-IFN-γ (FITC) antibody 4S.B3 (Pharmingen). Samples (100,000 events in the lymphocyte gate) were read on a FACScalibur (Becton Dickinson).
FIG. 11: Confirmation of simultaneous CD4+ and CD8+ T-cell responses against CMVpp65 15mers 469, 470 by intracellular IFN-γ staining. PBMC from 2 donors (10687, 10788) were stimulated with either ConA as positive control (1st column), 15mers containing both putative class I and class II epitopes (columns 2 and 3) or medium as negative control (right column). Cells were stained for intracellular IFN-γ (x-axis) or surface the T-cell differentiation markers CD4 or CD8 (y-axis). Percentage in upper-right quadrant is indicated, numbers significant over background are shown boldface.

[3] = molecular target: T1, soluble DRB1*0401 molecules (DR4) (Homo sapiens, UniProt P01903+P01911, A100K/A169T/F76Y/I96L/K127E/L162R/M171V/N62H/P40V/Q125Y/R42H/S133A/S149N/S66Y/V115G/V209L/W38E); assay type: binding; set-up: key: +++: high binding affinity; ++: moderate binding affinity; +: low binding affinity; −: no binding
T1 construct: Soluble HLA class I A*0201 and HLA class II DRA1*0101/DRB1*0101/Ii, DRA1*0101/DRB1*0401/Ii and DRA1*0101/DRB1*0404/Ii molecules were expressed in SC-2 cells; made in house; host or cells: SC-2 cells

[4] = molecular target: T2, soluble DRB1*0404 molecules (Homo sapiens, UniProt P01903+P01911, A100R/A169T/F76Y/I96L/K127E/L162R/M171V/N62H/P40V/Q125Y/R42H/S133A/S149N/S66Y/V209L/W38E); experiment: Peptide binding assay, SDS-stability assay
T2 construct: Soluble HLA class I A*0201 and HLA class II DRA1*0101/DRB1*0101/Ii, DRA1*0101/DRB1*0401/Ii and DRA1*0101/DRB1*0404/Ii molecules were expressed in SC-2 cells; made in house; host or cells: SC-2 cells

[5] = molecular target: T2, soluble DRB1*0404 molecules; experiment: Peptide binding assay, SDS-stability assay; set-up: key: −: no binding; +/−: weak binding; +: intermediate binding; ++: strong binding; conditions: individual pp65 15mer
[6] = tested on: DRB1*0401, DRB1*0101, DRB1*0404, DRB1*0701 and DRB1*1101; experiment: Binding to soluble HLA molecules of different allels (promiscuity); set-up: species or system human
Description: In peptide binding reactions HLA molecules were used in a concentration of 0.5 μM, and each single peptide was added in 10-fold molar excess (5 μM) if not mentioned differently. […] The reaction was performed in PBS buffer (pH 7.4) at room temperature for 48 hours in the presence of a protease inhibitor cocktail (Roche) and 0.1% octyl-b-D-glucopyranoside (Sigma).
Peptide binding was evaluated in an SDS-stability assay (Gorga et al., 1987): trimeric HLA class II ab-peptide complexes are resistant to SDS and consequently appear as ˜60 kDa band in SDS-PAGE Western blot analysis. Individual HLA class II α and β chains not stabilized by a peptide binding with intermediate to high affinity migrate as ˜35 kDa and ˜30 kDa bands, respectively.
The binding affinities to DRB1*0701 and DRB1*1101 were tested by a peptide-competition assay (Reay et al., 1992). Briefly, binding of the biotinylated CLIP peptide (reference peptide) has been used for monitoring of HLA:peptide complex formation. […] In the case of lower affinity peptides they should be added in excess to the reference peptide to compete for occupancy of HLA binding grove. […] Alternatively, comparing of the amount of reference peptide bound to HLA molecules in the presence or absence of competitor peptide one can determine the binding activity of the peptide of interest.
In the present peptide-competition assay conditions of peptide binding were similar to described above. Soluble HLA molecules were used in the concentration of 0.5 μM and biotinylated CLIP was added to all samples in the final concentration of 2 μM. Competitor peptides were added in three different concentrations: 0.25, 5 and 100 μM. Binding reaction was performed in PBS buffer (pH 7.4) for 18 hours at 37° C. […] Briefly, MaxiSorb 96-well plates (Nunc, Denmark) were coated with mouse anti-αβ antibody L243 (purified from ATCC HB-55) by overnight incubation with 50 μl of 10 μg/ml dilution in PBS at 4° C. Non-specific binding to the plastic was blocked by incubation with T-PBS containing 3% of BSA for 2 hours at 37° C. and binding reactions were then “captured” for 2 hours at room temperature. […] The optical density at 405 nm was measured on a microplate reader SUNRISE (Tecan).
Some of the identified DRB1*0401 binding peptides, as well as others chosen by prediction algorithms were also tested for binding to soluble HLA molecules of different allels: DRB1*0101, DRB1*0404, DRB1*0701 and DRB1*1101 (Table 3).

[7] = molecular target: T3, soluble DRB1*0101 molecules (Homo sapiens, UniProt P01903+P01911, A100R/D57E/F55L/F60I/F76Y/I96L/L162R/M171V/P40L/Q125E/R42F/V115G/Y59C); experiment: Peptide binding assay, SDS-stability assay; set-up: key: −: no binding; +/−: weak binding; +: intermediate binding; ++: strong binding; conditions: individual pp65 15mer
T3 construct: Soluble HLA class I A*0201 and HLA class II DRA1*0101/DRB1*0101/Ii, DRA1*0101/DRB1*0401/Ii and DRA1*0101/DRB1*0404/Ii molecules were expressed in SC-2 cells; made in house; host or cells: SC-2 cells

[8] = molecular target: T3, soluble DRB1*0101 molecules; experiment: Peptide binding assay, SDS-stability assay; set-up: key: −: no binding/T cell response; +/−: weak binding/T cell response; +: intermediate binding/T cell response; ++: strong binding/T cell response; conditions: soluble DRB1*0101 molecules
[9] = molecular target: T2, soluble DRB1*0404 molecules; experiment: Peptide binding assay, SDS-stability assay; set-up: key: +++: high binding affinity; ++: moderate binding affinity; +: low binding affinity; −: no binding; conditions: individual pp65 15mer
[10] = molecular target: T1, soluble DRB1*0401 molecules (DR4); assay type: binding; set-up: key: −: no binding; +/−: weak binding; +: intermediate binding; ++: strong binding; conditions: individual pp65 15mer, SDS-stability assay
[11] = molecular target: T3, soluble DRB1*0101 molecules; experiment: Peptide binding assay, SDS-stability assay; set-up: key: +++: high binding affinity; ++: moderate binding affinity; +: low binding affinity; −: no binding; conditions: individual pp65 15mer
[12] = tested on: HLA-DRB1*0401-transgenic mice splenocytes; assay type: in vivo, mouse; set-up: key to DRB1*0401 mice total SC (T cell response) / DRB1*0401 mice CD4+ (T cell response): −: no binding/T cell response; +/−: weak binding/T cell response; +: intermediate binding/T cell response; ++: strong binding/T cell response; conditions: IFN-gamma ELISpot, ex vivo re-stimulation; for DRB1*0401 mice CD4+ (T cell response): enriched CD4+ fraction of splenocytes of HLA-DR4 transgenic mice vaccinated with the longer peptide; for DRB1*0401 mice total SC (T cell response): total splenocytes of HLA-DR4 transgenic mice vaccinated with the longer peptide
[13] = molecular target: T2, soluble DRB1*0404 molecules; experiment: Peptide binding assay, SDS-stability assay; set-up: key: −: no binding/T cell response; +/−: weak binding/T cell response; +: intermediate binding/T cell response; ++: strong binding/T cell response; conditions: soluble DRB1*0404 molecules
[14] = molecular target: T1, soluble DRB1*0401 molecules (DR4); assay type: binding; set-up: key to Binding to DRB1 *0401: −: no binding/T cell response; +/−: weak binding/T cell response; +: intermediate binding/T cell response; ++: strong binding/T cell response; conditions: soluble DRB1*0401 molecules
[15] = individual pp65 15mer, SDS-stability assay

Row | Sequence | Induction of IFN-gamma secretion in T cells / PBMC from CMV seropositive donors [1] | Intracellular IFN-γ in CD4 and CD8 positive T-cell compartments [2] | Binding to DRB1*0401 [3, 15] | Binding to DRB1*0404 (in words) [4] | Binding to DRB1*0404 [5] | Affinity for several HLA molecules (promiscuity) [6] | Binding to DRB1*0101 [7] | DRB1*0401 mice CD4+ (T cell response) [12] | DRB1*0401 mice total SC (T cell response) [12] | Binding to DRB1 *0401 [14] | also measured
1 | EDSDNEIHNPAVFTW [Peptide 470] | induce IFN-gamma secretion; also recorded: can induce functional, IFN-gamma secreting T cells in humans; also recorded: induce INF-gamma production | significant IFN-γ secretion in both the CD8 and CD4 positive T-cell compartments | − | found to bind to DRB1*0404; also recorded: weakly binding to DRB1*0404 | +/− | affinity for at least two HLA molecules |  |  |  |  | 
2 | MSIYVYALPLKMLNI [Peptide 109] |  |  |  |  |  |  | + |  |  |  | Binding to DRB1*0401 [3]: −
3 | LVSQYTPDSTPCHRG [Peptide 57] | induce INF-gamma production |  |  |  |  |  |  | + | ++ | ++ | Binding to DRB1*0101 [8]: −; T-cell responses, IFN-γ ELIspot ([1]; donor 10788 (FIG. 10)): strong T-cell responses; Binding to DRB1*0404 [9]: −; Binding to DRB1*0401 [10]: ++; Binding to DRB1*0101 [11]: −; Binding to DRB1*0404 [13]: −
4 | LVPMVATVQGQNLKY [Peptide 496] |  |  | − |  | + | affinity for at least two HLA molecules | + |  |  |  | 
5 | DEDSDNEIHNPAVFT [Peptide 469] | induce IFN-gamma secretion; also recorded: can induce functional, IFN-gamma secreting T cells in humans; also recorded: induce INF-gamma production | significant IFN-γ secretion in both the CD8 and CD4 positive T-cell compartments | − | found to bind to DRB1*0404; also recorded: weakly binding to DRB1*0404 | +/− |  |  |  |  |  | 
6 | WKEPDVYYTSAFVFP [Peptide 175] |  |  | − |  |  |  | + | + | + | − | 
